Source: patent publication US20190338048A1
pKd: −log10 of the molar value. Like-named read-outs stand apart in the source and are kept apart here. Each block holds one substance with its values, some of them ahead of it.

How the values were obtained:
[1] = biological target: Recombinant human IL-17A (human) (UniProt Q16552); assay: SPR
[2] = biological target: Recombinant human IL-17A (human) (UniProt Q16552); assay: SPR; remark: listed apart in the source
[3] = biological target: CAT-2200 Fab heavy chain S188K; assay: LCCA
[4] = biological target: CAT-2200 heavy chain Fab construct (H1) S186R; assay: LCCA, SPR tag read-out
[5] = biological target: CAT-2200 heavy chain Fab construct (H1) Q39K; assay: LCCA, SPR tag read-out
[6] = biological target: Recombinant human IL-17A (human) (UniProt Q16552); assay: SPR; remark: listed apart in the source
[7] = biological target: Pertuzumab kappa light chain P44F_S131R_V133G_S176R; assay: LCCA, SPR tag read-out
[8] = biological target: Pertuzumab kappa light chain P44F_V133G_S176D_T180E; assay: LCCA, SPR tag read-out
[9] = biological target: Pertuzumab kappa light chain P44F_V133G_S176D_T180E; assay: LCCA, SPR tag read-out; remark: listed apart in the source
[10] = biological target: CAT-2200 lambda light chain E124Q_T131R; assay: LCCA, SPR tag read-out
[11] = biological target: Pertuzumab kappa light chain P44F_Q124R_T178R; assay: LCCA, SPR tag read-out
[12] = biological target: Pertuzumab kappa light chain S131K_L135K; assay: LCCA, SPR tag read-out
[13] = biological target: CAT-2200 lambda light chain K129T_V133D; assay: LCCA, SPR
[14] = biological target: Pertuzumab kappa light chain S131K_V133G_S176R_T178A; assay: LCCA, SPR
[15] = biological target: CAT-2200 lambda light chain K129T_V133D; assay: LCCA, SPR; remark: listed apart in the source
[16] = biological target: Pertuzumab kappa light chain S131R_V133G_S176R_T178A; assay: LCCA, SPR
[17] = biological target: Pertuzumab kappa light chain S131R_V133G_S176R_T178A (L2), HA-tagged; assay: LCCA, SPR of light-chain tags
[18] = biological target: Pertuzumab kappa light chain S131K_V133G_S176R_T178A (L2), HA-tagged; assay: LCCA, SPR of light-chain tags
[19] = biological target: Pertuzumab kappa light chain S131R_V133G_S176R_T178A (L2), HA-tagged; assay: LCCA, SPR of light-chain tags; remark: listed apart in the source
[20] = biological target: Pertuzumab kappa light chain S131R_V133S_L135K; assay: LCCA, SPR
[21] = biological target: Pertuzumab kappa light chain V133A_S176K_T178A (L2), HA-tagged; assay: LCCA, SPR of light-chain tags
[22] = biological target: Pertuzumab kappa light chain V133G_S176R_T178A (L2), HA-tagged; assay: LCCA, SPR of light-chain tags
[23] = biological target: Pertuzumab kappa light chain V133A_S176K_T178A (L2), HA-tagged; assay: LCCA, SPR of light-chain tags; remark: listed apart in the source
[24] = biological target: Pertuzumab kappa light chain V133G_S176R_T178A (L2), HA-tagged; assay: LCCA, SPR of light-chain tags; remark: listed apart in the source
[25] = biological target: Pertuzumab kappa light chain Q124E_V133G_S176D_T178D; assay: LCCA
[26] = biological target: CAT-2200 lambda light chain E124Q_T131K; assay: LCCA, SPR
[27] = biological target: Pertuzumab kappa light chain V133G_S176D_T178E; assay: LCCA, SPR
[28] = biological target: Pertuzumab kappa light chain V133G_S176D_T180E; assay: LCCA, SPR
[29] = biological target: Pertuzumab kappa light chain V133G_L135W_S176D_T180E; assay: LCCA, SPR tag read-out
[30] = biological target: Pertuzumab kappa light chain V133G_L135W_S176D_T180E; assay: LCCA, SPR tag read-out; remark: listed apart in the source
[31] = biological target: Pertuzumab kappa light chain V133G_S176D_T178E; assay: LCCA, SPR; remark: listed apart in the source
[32] = biological target: Pertuzumab kappa light chain V133G_S176D_T180E; assay: LCCA, SPR; remark: listed apart in the source
[33] = biological target: CAT-2200 lambda light chain E124Q_T131R; assay: LCCA, SPR
[34] = biological target: Pertuzumab kappa light chain S121K_Q124R_Q160K_T178R; assay: LCCA
[35] = biological target: Pertuzumab kappa light chain S121K_Q124R_T178R; assay: LCCA
[36] = biological target: CAT-2200 lambda light chain S122D_K129T_S180E; assay: LCCA
[37] = biological target: Pertuzumab kappa light chain Q124R_S176A_T178R; assay: LCCA, SPR
[38] = biological target: Pertuzumab kappa light chain Q124R_Q160R_S176A_T178R; assay: LCCA, SPR
[39] = biological target: Pertuzumab kappa light chain Q124K_L135A_T178R; assay: LCCA
[40] = biological target: Pertuzumab kappa light chain Q124R_L135A_Q160K_T178R; assay: LCCA
[41] = biological target: Pertuzumab kappa light chain S121K_Q124E_V133D; assay: LCCA, SPR tag read-out
[42] = biological target: Pertuzumab kappa light chain Q124E_V133D_L135A; assay: LCCA, SPR tag read-out
[43] = biological target: CAT-2200 lambda light chain T116F_S176F (L1), N-terminal FLAG tag; assay: LCCA, SPR of light chain tags
[44] = biological target: Pertuzumab kappa light chain V133A (L2), N-terminal HA tag; assay: LCCA, SPR of light chain tags
[45] = biological target: Pertuzumab light chain (kappa) V133G_S176D_T180E, HA-tagged; assay: LCCA
[46] = biological target: Pertuzumab light chain (kappa) V133G_S176D_T178E, HA-tagged; assay: LCCA
[47] = biological target: Pertuzumab light chain (kappa) V133G_S176D_T180E, HA-tagged; assay: LCCA; remark: listed apart in the source
[48] = biological target: Pertuzumab light chain (kappa) V133G_S176D_T178E, HA-tagged; assay: LCCA; remark: listed apart in the source

Chain of Recombinant human IL-17A (human) (Q16552 20-155 limits assumed): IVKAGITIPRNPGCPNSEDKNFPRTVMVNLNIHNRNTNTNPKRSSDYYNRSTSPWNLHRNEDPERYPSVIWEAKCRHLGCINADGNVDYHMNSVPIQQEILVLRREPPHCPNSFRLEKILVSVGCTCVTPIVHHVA

Change in KD of H1L1 Fab vs wild type [1]: -0.13
Change in KD of H1L1 Fab vs wild type, -(log(KD design)-log(KD wt)) [1]: -0.13
pKd [1]: 9.43
pKd [2]: 9.43
Substance: CAT-2200 Fab heterodimer (H1L1) with H1 S188K and L1 S176D_Y178E

Change in KD of H1L1 Fab vs wild type [1]: -0.12
pKd [2]: 9.44
Substance: CAT-2200 Fab heterodimer (H1L1) with H1 S188K and L1 S176E_Y178E

Change in KD of H1L1 Fab vs wild type [1]: 0.08
pKd [2]: 9.64
Substance: CAT-2200 Fab heterodimer (H1L1) with H1 V177I_S188K and L1 V133I_S176D_Y178E

H1L1:H1L2 median scalar value (ln(H1L1:H1L2)) [3]: 1.8
Substance: CAT-2200 lambda light chain K129T_S176E_Y178E

H1L1:H1L2 median scalar value (ln(H1L1:H1L2)) [3]: 1.01
Substance: CAT-2200 lambda light chain S176E_Y178E

H1L1:H1L2 normalized median scalar value ln(r1/f1) [4]: 1.94
Substance: CAT-2200 lambda light chain construct (L1) K129T_S180E, FLAG-tagged

H1L1:H1L2 normalized median scalar value ln(r1/f1) [5]: 0.91
Substance: CAT-2200 lambda light chain construct (L1) Q38D, FLAG-tagged

H1L1:H1L2 normalized median scalar value ln(r1/f1) [5]: 0.61
Substance: CAT-2200 lambda light chain construct (L1) Q38E, FLAG-tagged

pKd [1]: 9.43
pKd [6]: 9.44
Substance: CAT-2200 wild type one-armed antibody (OAA), FLAG-tagged light chain

pKd [1]: 9.43
pKd [6]: 9.46
Substance: CAT-2200 wild type one-armed antibody (OAA), HA-tagged light chain

pKd [1]: 9.55
pKd [6]: 9.54
Substance: CAT-2200 wild type one-armed antibody (OAA), no tags

H2L2:H2L1 median scalar value [7]: 3.9 ln(ratio)
H2L2:H2L1 normalized median ratio [7]: 97%
Substance: Pertuzumab Fab heavy chain L45P_L124E_K145T_Q179E

H2L2:H2L1 median scalar value [8]: 1.84 ln(ratio)
H2L2:H2L1 normalized median ratio [8]: 86%
H2L2:H2L1 median scalar value [9]: 1.45 ln(ratio)
H2L2:H2L1 normalized median ratio [9]: 81%
H2L2:H2L1 normalized median ratio [10]: 14%
Substance: Pertuzumab Fab heavy chain L45P_L124R_Q179K

H2L2:H2L1 median scalar value [11]: 3.81 ln(ratio)
H2L2:H2L1 normalized median ratio [11]: 98%
Substance: Pertuzumab Fab heavy chain L45P_L143E_K145T_Q179E

H2L2:H2L1 median scalar value [12]: 0.85 ln(ratio)
Substance: Pertuzumab Fab heavy chain L124E_K145T

H2L2:H2L1 normalized median ratio [13]: 12%
H2L2:H2L1 normalized median ratio [14]: 84%
H2L2:H2L1 normalized median scalar value ln(r1/f1) [14]: 1.69
H2L2:H2L1 normalized median ratio [15]: 16%
H2L2:H2L1 normalized median ratio [16]: 88%
H2L2:H2L1 normalized median scalar value ln(r1/f1) [16]: 2.04
Substance: Pertuzumab Fab heavy chain L124E_K145T_Q179E_S186I_S188W

H2L2:H2L1 normalized median scalar value ln(r1/f1) [17]: 1.24
H2L2:H2L1 normalized median scalar value ln(r1/f1) [18]: 0.9
H2L2:H2L1 normalized median scalar value ln(r1/f1) [19]: 1.55
Substance: Pertuzumab Fab heavy chain L124E_K145T_Q179E_S186I_S188W (H2)

H2L2:H2L1 normalized median ratio [13]: 4%
H2L2:H2L1 normalized median ratio [14]: 91%
H2L2:H2L1 normalized median scalar value ln(r1/f1) [14]: 2.31
H2L2:H2L1 normalized median ratio [15]: 9%
H2L2:H2L1 normalized median ratio [16]: 96%
H2L2:H2L1 normalized median scalar value ln(r1/f1) [16]: 3.12
Substance: Pertuzumab Fab heavy chain L124E_K145T_Q179E_S188W

H2L2:H2L1 normalized median ratio [15]: 20%
H2L2:H2L1 normalized median ratio [20]: 80%
H2L2:H2L1 normalized median scalar value ln(r1/f1) [20]: 1.38
Substance: Pertuzumab Fab heavy chain L124E_K145T_S186E

H2L2:H2L1 normalized median scalar value ln(r1/f1) [21]: 0.65
H2L2:H2L1 normalized median scalar value ln(r1/f1) [22]: 0.94
H2L2:H2L1 normalized median scalar value ln(r1/f1) [23]: 1.03
H2L2:H2L1 normalized median scalar value ln(r1/f1) [24]: 1.19
Substance: Pertuzumab Fab heavy chain L124E_S186I_S188W (H2)

H2L2:H2L1 median scalar value [25]: -0.29 ln
Substance: Pertuzumab Fab heavy chain L124K_S188K

H2L2:H2L1 normalized median ratio [26]: 25%
H2L2:H2L1 normalized median scalar value ln(r1/f1) [27]: 1.22
H2L2:H2L1 normalized median scalar value ln(r1/f1) [28]: 1.32
H2L2:H2L1 median scalar value [29]: 0 ln(ratio)
H2L2:H2L1 median scalar value [30]: 0 ln(ratio)
H2L2:H2L1 normalized median scalar value ln(r1/f1) [31]: 1.12
H2L2:H2L1 normalized median scalar value ln(r1/f1) [32]: 1.47
H2L2:H2L1 normalized median ratio [33]: 21%
Substance: Pertuzumab Fab heavy chain L124R_S186K

H2L2:H2L1 normalized median ratio [26]: 26%
H2L2:H2L1 normalized median scalar value ln(r1/f1) [27]: 1.18
H2L2:H2L1 normalized median scalar value ln(r1/f1) [28]: 1.47
H2L2:H2L1 median scalar value [30]: 0.23 ln(ratio)
H2L2:H2L1 normalized median scalar value ln(r1/f1) [31]: 1.04
H2L2:H2L1 normalized median scalar value ln(r1/f1) [32]: 1.5
Substance: Pertuzumab Fab heavy chain L124R_S186R

H2L2:H2L1 median scalar value [25]: 0.54 ln
Substance: Pertuzumab Fab heavy chain L124R_S188K

H2L2:H2L1 median scalar value [34]: -0.24 ln
H2L2:H2L1 median scalar value [35]: 2.19 ln
H2L2:H2L1 normalized median ratio [35]: 72%
H2L2:H2L1 normalized median ratio [36]: 28%
Substance: Pertuzumab Fab heavy chain L143E_K145T_K228D

H2L2:H2L1 normalized median scalar value ln(r1/f1) [37]: 2.8
H2L2:H2L1 normalized median scalar value ln(r1/f1) [38]: 1.42
Substance: Pertuzumab Fab heavy chain L143E_K145T_Q179E_S186I_S188W

H2L2:H2L1 median scalar value [39]: -0.51 ln
Substance: Pertuzumab Fab heavy chain L143E_K145T_Q179E_S188F_V190F

H2L2:H2L1 normalized median scalar value ln(r1/f1) [37]: 2.83
H2L2:H2L1 normalized median ratio [15]: 15%
H2L2:H2L1 normalized median ratio [38]: 85%
H2L2:H2L1 normalized median scalar value ln(r1/f1) [38]: 1.71
Substance: Pertuzumab Fab heavy chain L143E_K145T_Q179E_S188W

H2L2:H2L1 median scalar value [40]: -0.23 ln
Substance: Pertuzumab Fab heavy chain L143E_K145T_V190F

H2L2:H2L1 median scalar value [41]: -0.18 ln(ratio)
Substance: Pertuzumab Fab heavy chain L143I_S186K_K228D

H2L2:H2L1 median scalar value [42]: -0.49 ln(ratio)
Substance: Pertuzumab Fab heavy chain L143I_S186K_V190F

H2L2:H2L1 median scalar value [42]: 1.25 ln(ratio)
Substance: Pertuzumab Fab heavy chain L143R_V190F

H2L2:H2L1 median scalar value [41]: -0.5 ln(ratio)
Substance: Pertuzumab Fab heavy chain S186K_K228D

H2L2:H2L1 median scalar value [42]: -0.45 ln(ratio)
Substance: Pertuzumab Fab heavy chain S186K_V190F

H2L2:H2L1 normalized median ratio [43]: 28%
H2L2:H2L1 normalized median ratio [44]: 72%
H2L2:H2L1 normalized median scalar value ln(r1/f1) [44]: 0.93
Substance: Pertuzumab Fab heavy chain S188F (H2), ABD2-His6 tagged

H2L2:H2L1 normalized median scalar value ln(r1/f1) [45]: 1.32
H2L2:H2L1 normalized median scalar value ln(r1/f1) [46]: 1.22
H2L2:H2L1 normalized median scalar value ln(r1/f1) [47]: 1.47
H2L2:H2L1 normalized median scalar value ln(r1/f1) [48]: 1.12
Substance: Pertuzumab heavy chain Fab construct L124R_S186K
